We go through 35 molecules from patent US20230203177A1 (Bristol-Myers Squibb, published 2023).

Residue numbers refer to the chain shown, from its start. Names and notes keep the numbering of the source.

B1: M58 (HC-R67E / LC-K45Q,R54Q,R61Q) (antibody, human IgG1, kappa, V domains shown)
VH: QVQLVQSGAEVKKPGSSVKVSCKASGYAFTSYWMHWVRQAPGQGLEWMGQINPTTGRSQYNEKFKTEVTITADKSTSTAYMELSSLRSEDTAVYYCARWGLQPFAYWGQGTLVTVSS
VL: DIQMTQSPSFLSASVGDRVTITCKASQDVSTAVAWYQQKPGKAPQLLIYSASYQYTGVPSQFSGSGSGTDFTLTISSLQPEDFATYYCQQHYSTPWTFGGGTKVEIKR
notes: IgG1-P238K; also called HC10/LC4
B2: M84 (HC-K12E / LC-K107Q,R108Q) (antibody, human IgG1, kappa)
heavy: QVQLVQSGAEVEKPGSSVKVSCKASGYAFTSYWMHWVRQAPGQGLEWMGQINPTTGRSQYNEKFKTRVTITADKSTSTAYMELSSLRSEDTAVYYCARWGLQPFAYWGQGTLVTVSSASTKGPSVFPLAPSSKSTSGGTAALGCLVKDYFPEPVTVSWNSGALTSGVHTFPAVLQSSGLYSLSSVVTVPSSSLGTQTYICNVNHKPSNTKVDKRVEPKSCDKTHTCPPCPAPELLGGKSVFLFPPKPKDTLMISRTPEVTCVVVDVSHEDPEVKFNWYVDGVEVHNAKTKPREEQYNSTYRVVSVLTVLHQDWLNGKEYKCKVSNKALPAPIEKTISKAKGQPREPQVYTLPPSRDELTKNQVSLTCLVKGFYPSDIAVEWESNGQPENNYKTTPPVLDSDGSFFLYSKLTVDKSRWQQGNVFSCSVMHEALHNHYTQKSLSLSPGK
light: DIQMTQSPSFLSASVGDRVTITCKASQDVSTAVAWYQQKPGKAPKLLIYSASYRYTGVPSRFSGSGSGTDFTLTISSLQPEDFATYYCQQHYSTPWTFGGGTKVEIQQTVAAPSVFIFPPSDEQLKSGTASVVCLLNNFYPREAKVQWKVDNALQSGNSQESVTEQDSKDSTYSLSSTLTLSKADYEKHKVYACEVTHQGLSSPVTKSFNRGEC
notes: IgG1-P238K; also called HC4/LC6
B3: M69 (HC-K12E,K13Q,K23E / LC-R61Q) (antibody, human IgG1, kappa)
heavy: not shown
light: B2 light with R61Q, Q107K, Q108R
notes: IgG1-P238K; also called HC5/LC5
B4: M91 (HC-R57E / LC-K107Q,R108Q) (antibody, human IgG1, kappa)
heavy: not shown
light: B2 light
notes: IgG1-P238K; also called HC11/LC6
B5: M92 (HC-R57E,K74Q / LC-K107Q,R108Q) (antibody, human IgG1, kappa)
heavy: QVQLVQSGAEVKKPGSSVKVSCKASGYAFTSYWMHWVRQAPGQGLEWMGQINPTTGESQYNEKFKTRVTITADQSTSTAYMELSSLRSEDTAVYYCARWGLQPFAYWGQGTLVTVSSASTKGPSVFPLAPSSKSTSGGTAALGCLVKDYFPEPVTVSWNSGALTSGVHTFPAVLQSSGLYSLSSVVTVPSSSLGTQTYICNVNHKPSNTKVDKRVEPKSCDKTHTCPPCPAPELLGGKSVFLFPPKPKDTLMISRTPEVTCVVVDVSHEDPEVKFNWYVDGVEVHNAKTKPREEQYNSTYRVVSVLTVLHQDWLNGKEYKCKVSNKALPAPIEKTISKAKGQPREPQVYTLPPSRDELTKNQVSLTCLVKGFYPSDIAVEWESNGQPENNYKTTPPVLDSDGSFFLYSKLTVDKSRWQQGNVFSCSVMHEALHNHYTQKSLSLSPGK
light: B2 light
notes: IgG1-P238K; also called HC12/LC6
B6: M61 (HC-E46K,E62K / LC-K45Q,R54Q,R61Q) (antibody, human IgG1, kappa, V domains shown)
VH: B1 VH with E46K, E62K, E67R
VL: B1 VL
notes: IgG1-P238K; also called HC13/LC4
B7: M87 (HC-K23E / LC-K107Q,R108Q) (antibody, human IgG1, kappa)
heavy: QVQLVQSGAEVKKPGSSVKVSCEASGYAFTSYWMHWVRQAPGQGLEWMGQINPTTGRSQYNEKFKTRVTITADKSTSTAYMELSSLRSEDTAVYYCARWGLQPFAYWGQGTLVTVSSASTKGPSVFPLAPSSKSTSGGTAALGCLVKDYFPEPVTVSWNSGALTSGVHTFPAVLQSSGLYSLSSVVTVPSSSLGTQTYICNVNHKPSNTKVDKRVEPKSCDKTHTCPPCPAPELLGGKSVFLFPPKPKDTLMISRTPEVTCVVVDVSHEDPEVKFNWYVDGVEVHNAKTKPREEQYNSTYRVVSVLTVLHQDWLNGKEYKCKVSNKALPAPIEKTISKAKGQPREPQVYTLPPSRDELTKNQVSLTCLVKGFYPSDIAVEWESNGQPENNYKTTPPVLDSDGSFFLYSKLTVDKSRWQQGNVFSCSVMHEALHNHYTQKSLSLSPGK
light: B2 light
notes: IgG1-P238K; also called HC7/LC6
B8: M75 (HC-R57E / LC-R61Q) (antibody, human IgG1, kappa, V domains shown)
VH: B1 VH with R57E, E67R
VL: B1 VL with Q45K, Q54R
notes: IgG1-P238K; also called HC11/LC5
B9: M88 (HC-R38Q,K63Q,R67Q / LC-K107Q,R108Q) (antibody, human IgG1, kappa)
heavy: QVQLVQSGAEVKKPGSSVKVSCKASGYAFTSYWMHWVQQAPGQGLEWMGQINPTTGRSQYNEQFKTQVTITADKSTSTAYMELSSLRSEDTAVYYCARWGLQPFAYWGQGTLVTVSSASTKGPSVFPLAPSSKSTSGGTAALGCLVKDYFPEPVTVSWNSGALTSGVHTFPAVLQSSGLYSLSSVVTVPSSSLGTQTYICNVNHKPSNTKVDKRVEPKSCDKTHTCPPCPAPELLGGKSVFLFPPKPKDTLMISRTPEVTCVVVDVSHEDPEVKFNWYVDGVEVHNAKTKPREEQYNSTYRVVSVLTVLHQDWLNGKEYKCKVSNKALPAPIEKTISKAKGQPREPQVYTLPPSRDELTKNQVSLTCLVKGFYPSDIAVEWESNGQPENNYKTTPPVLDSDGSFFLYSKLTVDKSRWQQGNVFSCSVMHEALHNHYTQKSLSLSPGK
light: B2 light
notes: IgG1-P238K; also called HC8/LC6
B10: M82 (HC-K12Q,K13Q / LC-K107Q,R108Q) (antibody, human IgG1, kappa)
heavy: not shown
light: B2 light
notes: IgG1-P238K; also called HC2/LC6
B11: M64 (HC-K63Q / LC-K45Q,R54Q,R61Q) (antibody, human IgG1, kappa, V domains shown)
VH: B1 VH with K63Q, E67R
VL: B1 VL
notes: IgG1-P238K; also called HC16/LC4
B12: M79 (HC-R67Q / LC-R61Q) (antibody, human IgG1, kappa, V domains shown)
VH: B1 VH with E67Q
VL: B1 VL with Q45K, Q54R
notes: IgG1-P238K; also called HC15/LC5
B13: M89 (HC-K63Q,R67E / LC-K107Q,R108Q) (antibody, human IgG1, kappa)
heavy: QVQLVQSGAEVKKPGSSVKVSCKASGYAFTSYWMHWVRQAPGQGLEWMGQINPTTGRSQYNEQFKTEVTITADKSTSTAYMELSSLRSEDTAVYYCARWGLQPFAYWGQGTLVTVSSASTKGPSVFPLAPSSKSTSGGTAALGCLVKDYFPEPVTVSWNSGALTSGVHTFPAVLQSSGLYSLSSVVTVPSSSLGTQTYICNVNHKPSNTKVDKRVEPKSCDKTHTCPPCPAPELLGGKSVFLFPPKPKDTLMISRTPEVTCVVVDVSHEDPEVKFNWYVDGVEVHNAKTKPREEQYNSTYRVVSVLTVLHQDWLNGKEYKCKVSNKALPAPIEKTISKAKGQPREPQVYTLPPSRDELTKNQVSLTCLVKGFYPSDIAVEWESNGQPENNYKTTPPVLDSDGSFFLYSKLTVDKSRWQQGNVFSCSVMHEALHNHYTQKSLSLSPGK
light: B2 light
notes: IgG1-P238K; also called HC9/LC6
B14: M93 (HC-E46K,E62K / LC-K107Q,R108Q) (antibody, human IgG1, kappa)
heavy: not shown
light: B2 light
notes: IgG1-P238K; also called HC13/LC6
B15: M96 (HC-K63Q / LC-K107Q,R108Q) (antibody, human IgG1, kappa)
heavy: not shown
light: B2 light
notes: IgG1-P238K; also called HC16/LC6
B16: M85 (HC-K12E,K13Q,K23E / LC-K107Q,R108Q) (antibody, human IgG1, kappa)
heavy: not shown
light: B2 light
notes: IgG1-P238K; also called HC5/LC6
B17: M73 (HC-K63Q,R67E / LC-R61Q) (antibody, human IgG1, kappa, V domains shown)
VH: B1 VH with K63Q
VL: B1 VL with Q45K, Q54R
notes: IgG1-P238K; also called HC9/LC5
B18: M86 (HC-K12V,K19S,K23A / LC-K107Q,R108Q) (antibody, human IgG1, kappa)
heavy: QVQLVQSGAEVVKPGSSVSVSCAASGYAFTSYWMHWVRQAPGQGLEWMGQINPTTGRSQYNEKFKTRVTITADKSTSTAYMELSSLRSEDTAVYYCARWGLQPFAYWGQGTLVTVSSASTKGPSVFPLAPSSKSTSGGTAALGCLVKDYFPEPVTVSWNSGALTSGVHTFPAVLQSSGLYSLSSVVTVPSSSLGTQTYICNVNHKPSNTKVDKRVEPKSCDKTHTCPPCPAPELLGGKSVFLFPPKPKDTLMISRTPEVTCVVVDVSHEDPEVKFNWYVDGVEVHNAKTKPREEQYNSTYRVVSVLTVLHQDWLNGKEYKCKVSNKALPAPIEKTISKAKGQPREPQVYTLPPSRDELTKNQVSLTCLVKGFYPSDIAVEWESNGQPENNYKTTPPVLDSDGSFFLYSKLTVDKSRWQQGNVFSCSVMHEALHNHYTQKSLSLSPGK
light: B2 light
notes: IgG1-P238K; also called HC6/LC6
B19: M74 (HC-R67E / LC-R61Q) (antibody, human IgG1, kappa, V domains shown)
VH: B1 VH
VL: B1 VL with Q45K, Q54R
notes: IgG1-P238K; also called HC10/LC5
B20: M59 (HC-R57E / LC-K45Q,R54Q,R61Q) (antibody, human IgG1, kappa, V domains shown)
VH: B1 VH with R57E, E67R
VL: B1 VL
notes: IgG1-P238K; also called HC11/LC4
B21: M90 (HC-R67E / LC-K107Q,R108Q) (antibody, human IgG1, kappa)
heavy: not shown
light: B2 light
notes: IgG1-P238K; also called HC10/LC6
B22: M70 (HC-K12V,K19S,K23A / LC-R61Q) (antibody, human IgG1, kappa, V domains shown)
VH: B1 VH with K12V, K19S, K23A, E67R
VL: B1 VL with Q45K, Q54R
notes: IgG1-P238K; also called HC6/LC5
B23: M60 (HC-R57E,K74Q / LC-K45Q,R54Q,R61Q) (antibody, human IgG1, kappa, V domains shown)
VH: B1 VH with R57E, E67R, K74Q
VL: B1 VL
notes: IgG1-P238K; also called HC12/LC4
B24: M83 (HC-K12Q,K13Q,K23Q / LC-K107Q,R108Q) (antibody, human IgG1, kappa)
heavy: not shown
light: B2 light
notes: IgG1-P238K; also called HC3/LC6
B25: M65 (HC-wt / LC-R61Q) (antibody, human IgG1, kappa)
heavy: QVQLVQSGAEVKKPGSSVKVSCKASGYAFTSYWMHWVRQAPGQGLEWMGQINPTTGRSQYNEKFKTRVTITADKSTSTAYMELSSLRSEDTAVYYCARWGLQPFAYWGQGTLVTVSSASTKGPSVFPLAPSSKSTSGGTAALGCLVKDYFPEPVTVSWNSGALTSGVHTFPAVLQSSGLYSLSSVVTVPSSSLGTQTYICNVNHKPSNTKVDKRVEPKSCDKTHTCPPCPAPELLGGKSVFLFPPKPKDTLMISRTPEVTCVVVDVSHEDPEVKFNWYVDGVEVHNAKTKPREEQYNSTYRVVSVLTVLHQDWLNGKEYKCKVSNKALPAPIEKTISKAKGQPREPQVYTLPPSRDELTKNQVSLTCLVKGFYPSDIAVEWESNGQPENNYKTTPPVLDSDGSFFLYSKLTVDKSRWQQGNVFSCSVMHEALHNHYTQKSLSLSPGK
light: B2 light with R61Q, Q107K, Q108R
notes: IgG1-P238K; also called HC1/LC5
B26: M67 (HC-K12Q,K13Q,K23Q / LC-R61Q) (antibody, human IgG1, kappa, V domains shown)
VH: B1 VH with K12Q, K13Q, K23Q, E67R
VL: B1 VL with Q45K, Q54R
notes: IgG1-P238K; also called HC3/LC5
B27: M72 (HC-R38Q,K63Q,R67Q / LC-R61Q) (antibody, human IgG1, kappa, V domains shown)
VH: B1 VH with R38Q, K63Q, E67Q
VL: B1 VL with Q45K, Q54R
notes: IgG1-P238K; also called HC8/LC5
B28: M77 (HC-E46K,E62K / LC-R61Q) (antibody, human IgG1, kappa, V domains shown)
VH: B1 VH with E46K, E62K, E67R
VL: B1 VL with Q45K, Q54R
notes: IgG1-P238K; also called HC13/LC5
B29: M68 (HC-K12E / LC-R61Q) (antibody, human IgG1, kappa)
heavy: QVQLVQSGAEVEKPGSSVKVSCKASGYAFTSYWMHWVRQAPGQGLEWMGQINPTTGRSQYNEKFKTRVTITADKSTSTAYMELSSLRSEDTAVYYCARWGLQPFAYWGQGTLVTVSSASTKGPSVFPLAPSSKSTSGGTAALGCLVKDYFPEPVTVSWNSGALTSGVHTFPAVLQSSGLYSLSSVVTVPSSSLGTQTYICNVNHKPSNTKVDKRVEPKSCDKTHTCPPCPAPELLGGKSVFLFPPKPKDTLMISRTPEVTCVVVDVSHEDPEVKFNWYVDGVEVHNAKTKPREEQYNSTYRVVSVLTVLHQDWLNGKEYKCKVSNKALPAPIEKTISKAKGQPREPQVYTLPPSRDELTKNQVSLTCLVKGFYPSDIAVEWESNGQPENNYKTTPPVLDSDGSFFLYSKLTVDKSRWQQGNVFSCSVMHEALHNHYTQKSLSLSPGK
light: B2 light with R61Q, Q107K, Q108R
notes: IgG1-P238K; also called HC4/LC5
B30: M94 (HC-K74T / LC-K107Q,R108Q) (antibody, human IgG1, kappa)
heavy: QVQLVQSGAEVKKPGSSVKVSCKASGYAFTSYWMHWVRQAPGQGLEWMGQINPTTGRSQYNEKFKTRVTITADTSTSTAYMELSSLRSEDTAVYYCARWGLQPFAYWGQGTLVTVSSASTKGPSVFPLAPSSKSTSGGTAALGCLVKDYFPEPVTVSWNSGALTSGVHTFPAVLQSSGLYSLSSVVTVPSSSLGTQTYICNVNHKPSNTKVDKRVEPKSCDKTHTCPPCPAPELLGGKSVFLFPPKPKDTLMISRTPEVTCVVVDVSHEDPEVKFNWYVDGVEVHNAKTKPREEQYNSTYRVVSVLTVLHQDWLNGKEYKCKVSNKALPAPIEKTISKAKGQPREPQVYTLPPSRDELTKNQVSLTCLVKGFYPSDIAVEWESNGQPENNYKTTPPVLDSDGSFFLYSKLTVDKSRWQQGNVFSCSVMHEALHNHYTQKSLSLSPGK
light: B2 light
notes: IgG1-P238K; also called HC14/LC6
B31: M78 (HC-K74T / LC-R61Q) (antibody, human IgG1, kappa, V domains shown)
VH: B1 VH with E67R, K74T
VL: B1 VL with Q45K, Q54R
notes: IgG1-P238K; also called HC14/LC5
B32: M76 (HC-R57E,K74Q / LC-R61Q) (antibody, human IgG1, kappa, V domains shown)
VH: B1 VH with R57E, E67R, K74Q
VL: B1 VL with Q45K, Q54R
notes: IgG1-P238K; also called HC12/LC5
B33: M95 (HC-R67Q / LC-K107Q,R108Q) (antibody, human IgG1, kappa)
heavy: not shown
light: B2 light
notes: IgG1-P238K; also called HC15/LC6
B34: M71 (HC-K23E / LC-R61Q) (antibody, human IgG1, kappa)
heavy: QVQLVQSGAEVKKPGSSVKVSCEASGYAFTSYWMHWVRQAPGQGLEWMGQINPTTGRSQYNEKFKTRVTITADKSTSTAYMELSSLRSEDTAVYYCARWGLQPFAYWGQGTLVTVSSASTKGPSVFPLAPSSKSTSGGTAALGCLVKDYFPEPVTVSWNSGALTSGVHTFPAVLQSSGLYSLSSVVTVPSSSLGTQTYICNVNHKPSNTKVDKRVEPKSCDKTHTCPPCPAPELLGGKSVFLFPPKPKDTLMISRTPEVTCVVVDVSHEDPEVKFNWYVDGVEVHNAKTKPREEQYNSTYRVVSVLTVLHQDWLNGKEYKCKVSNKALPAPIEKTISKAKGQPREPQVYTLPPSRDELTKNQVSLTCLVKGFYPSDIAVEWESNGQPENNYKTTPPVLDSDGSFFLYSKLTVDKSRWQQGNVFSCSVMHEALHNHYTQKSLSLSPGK
light: B2 light with R61Q, Q107K, Q108R
notes: IgG1-P238K; also called HC7/LC5
B35: M66 (HC-K12Q,K13Q / LC-R61Q) (antibody, human IgG1, kappa)
heavy: not shown
light: B2 light with R61Q, Q107K, Q108R
notes: IgG1-P238K; also called HC2/LC5

T1 sequence (P25942 21-193 limits assumed): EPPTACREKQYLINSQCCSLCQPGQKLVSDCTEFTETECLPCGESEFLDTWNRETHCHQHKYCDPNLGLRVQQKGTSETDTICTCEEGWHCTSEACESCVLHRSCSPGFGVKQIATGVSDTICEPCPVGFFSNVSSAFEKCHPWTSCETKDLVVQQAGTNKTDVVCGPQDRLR

The experiment addresses T1, soluble human CD40 extracellular domain (human, UniProt P25942 21-193).
T1 construct: Produced in house; also called hCD40; soluble hCD40 extracellular domain
The experiment in a line: SPR, Ab captured from supernatant on protein A, hCD40 ECD analyte. The method, then:
The titer data (Table 21) were used to normalize the antibody concentration in each supernatant to 3 μg/ml, and these antibodies were captured out of the supernatants on a protein A CMS Series S sensor chip (GE Healthcare), and tested for binding to two concentrations (5 nM and 50 nM) of soluble hCD40 extracellular domain.
CD40 binding SPR of antibody supernatants: Surface plasmon resonance (SPR) studies were conducted on a BIAcore™ T200 instrument (GE Healthcare, Chicago Ill.). A Series S Protein A sensor chip (GE Healthcare, Chicago Ill.) was equilibrated with SPR running buffer of 10 mM NaPO₄, 130 mM NaCl, 0.05% tween 20, (PBS-T) pH 7.2 at 25° C. The 96 antibody supernatants were normalized to a concentration of 3 μg/ml by diluting with PBS-T using a PerkinElmer JANUS® G3 system (PerkinElmer, Akron, Ohio). After priming the system, the 3 μg/ml antibody samples were captured on the protein A surface for 30 s at 10 μl/min Binding of 50 nM and 500 nM human CD40 extracellular domain (produced in house) was evaluated using association time of 180 s at 30 μl/min, followed by a dissociation time of 180 s at 30 μl/min Regeneration between cycles was accomplished using two 15 s injections of 10 mM glycine pH 1.5. […] Data were analyzed using BIAcore™ T200 evaluation software by fitting to a 1:1 Langmuir model.
As usually defined, the Kd is the equilibrium constant for the complex coming apart. A low value points to tighter binding. For B1, the Kd was 2.1 nM. On to B2, for which the Kd stood at 3.3 nM. The figure for B3 is 3.8 nM; for B4 it is 9.6 nM. B5 showed a dissociation constant (Kd) of 13.4 nM. The figure for B6 is 7.5 nM; for B7 it is 4.3 nM; for B8 it is 10.5 nM. The figure for B9 is 3.2 nM. In turn, B10 displayed a Kd of 3.2 nM. As to B11, the Kd amounted to 3.3 nM.

With B12, binding was characterised by a dissociation constant (Kd) of 3.5 nM. Take B13: the Kd amounted to 3.3 nM.

B14 showed a Kd of 8.1 nM. B15 yielded a dissociation constant (Kd) of 3.9 nM. The figure for B16 is 3.3 nM; for B17 it is 3 nM. Consider B18, for which binding was put at a Kd of 3.7 nM.

Take B19: the Kd came out at 2.9 nM. Molecule B20 yielded a Kd of 9.5 nM. As for B21, the Kd worked out at 3 nM. Next, B22: 3.5 nM; B23: 14.7 nM.

As for B24, binding was put at a Kd of 3.6 nM. For the molecule B25, the Kd worked out at 4.3 nM.

B26 came in with a Kd of 3.6 nM. B27 showed a Kd of 2.9 nM. B28 returned a Kd of 7.9 nM. In turn, B29 yielded a Kd of 3.6 nM. The figure for B30 is 3.6 nM; for B31 it is 4 nM; for B32 it is 14.8 nM. The molecule B33 registered a Kd of 3.4 nM. In turn, B34 had a Kd of 4.4 nM.

For B35, the affinity, expressed as Kd, was 3.6 nM.
